# Patent US7470668B2, “Method of use of specific natriuretic peptide receptor c ligands, transgenic non-human mammals expressing specific natriuretic peptide receptor c antagonists and cells thereof” (Enobia Pharma Inc., priority 2005, dated 2008)
# T1: human GC-B (Homo sapiens, UniProt P20594)
# T1 construct: expressed in transfected cells; host or cells: HEK293, transient, pCDNA1.1 (CMV promoter)
# T1 sequence (P20594 23-1047): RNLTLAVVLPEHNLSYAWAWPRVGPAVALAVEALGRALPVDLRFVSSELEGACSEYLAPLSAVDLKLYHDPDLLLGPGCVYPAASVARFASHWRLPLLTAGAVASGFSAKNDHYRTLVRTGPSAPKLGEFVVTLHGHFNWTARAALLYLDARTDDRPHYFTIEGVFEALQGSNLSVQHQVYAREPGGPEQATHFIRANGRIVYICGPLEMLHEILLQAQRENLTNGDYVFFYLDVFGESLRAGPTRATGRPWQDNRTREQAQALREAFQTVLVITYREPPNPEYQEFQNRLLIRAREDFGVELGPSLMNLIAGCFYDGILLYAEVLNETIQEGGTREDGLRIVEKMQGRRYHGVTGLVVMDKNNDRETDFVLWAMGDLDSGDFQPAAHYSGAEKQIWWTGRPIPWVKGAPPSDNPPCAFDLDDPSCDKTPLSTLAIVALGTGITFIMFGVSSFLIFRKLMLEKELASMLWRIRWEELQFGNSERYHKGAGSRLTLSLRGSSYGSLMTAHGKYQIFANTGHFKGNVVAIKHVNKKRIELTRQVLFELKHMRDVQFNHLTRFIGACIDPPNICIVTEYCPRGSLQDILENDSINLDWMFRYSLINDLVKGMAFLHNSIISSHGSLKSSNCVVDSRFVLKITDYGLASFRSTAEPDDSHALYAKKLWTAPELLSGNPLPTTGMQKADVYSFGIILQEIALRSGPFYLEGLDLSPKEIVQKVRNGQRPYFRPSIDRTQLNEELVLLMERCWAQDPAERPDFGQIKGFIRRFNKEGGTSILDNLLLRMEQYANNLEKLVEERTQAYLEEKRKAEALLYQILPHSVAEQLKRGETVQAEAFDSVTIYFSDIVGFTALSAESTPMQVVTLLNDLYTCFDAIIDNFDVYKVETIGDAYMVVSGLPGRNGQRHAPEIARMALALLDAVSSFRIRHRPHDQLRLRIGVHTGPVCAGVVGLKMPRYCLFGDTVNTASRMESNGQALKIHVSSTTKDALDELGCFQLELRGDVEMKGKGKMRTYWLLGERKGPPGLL
# T2: NPR-C (Homo sapiens, UniProt P17342)
# T2 construct: expressed in transfected cells; host or cells: HEK293, transient, pCDNA1.1 (CMV promoter)
# T2 sequence (P17342 27-541): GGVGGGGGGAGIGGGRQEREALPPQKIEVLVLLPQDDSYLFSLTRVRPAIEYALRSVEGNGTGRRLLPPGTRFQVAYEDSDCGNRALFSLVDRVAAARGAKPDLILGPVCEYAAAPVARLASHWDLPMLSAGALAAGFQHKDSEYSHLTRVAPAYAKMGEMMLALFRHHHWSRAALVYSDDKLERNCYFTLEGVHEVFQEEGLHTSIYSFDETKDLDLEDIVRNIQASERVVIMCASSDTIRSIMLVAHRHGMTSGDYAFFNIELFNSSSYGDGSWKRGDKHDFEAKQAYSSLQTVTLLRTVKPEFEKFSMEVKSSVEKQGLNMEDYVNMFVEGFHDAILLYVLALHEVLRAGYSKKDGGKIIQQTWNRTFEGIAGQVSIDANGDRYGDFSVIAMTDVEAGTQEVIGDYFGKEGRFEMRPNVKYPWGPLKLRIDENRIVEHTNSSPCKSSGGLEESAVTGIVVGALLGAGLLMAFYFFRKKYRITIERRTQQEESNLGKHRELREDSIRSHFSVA
# T3: endogenous GC-A (Homo sapiens, UniProt P16066)
# T3 sequence (P16066 33-1061): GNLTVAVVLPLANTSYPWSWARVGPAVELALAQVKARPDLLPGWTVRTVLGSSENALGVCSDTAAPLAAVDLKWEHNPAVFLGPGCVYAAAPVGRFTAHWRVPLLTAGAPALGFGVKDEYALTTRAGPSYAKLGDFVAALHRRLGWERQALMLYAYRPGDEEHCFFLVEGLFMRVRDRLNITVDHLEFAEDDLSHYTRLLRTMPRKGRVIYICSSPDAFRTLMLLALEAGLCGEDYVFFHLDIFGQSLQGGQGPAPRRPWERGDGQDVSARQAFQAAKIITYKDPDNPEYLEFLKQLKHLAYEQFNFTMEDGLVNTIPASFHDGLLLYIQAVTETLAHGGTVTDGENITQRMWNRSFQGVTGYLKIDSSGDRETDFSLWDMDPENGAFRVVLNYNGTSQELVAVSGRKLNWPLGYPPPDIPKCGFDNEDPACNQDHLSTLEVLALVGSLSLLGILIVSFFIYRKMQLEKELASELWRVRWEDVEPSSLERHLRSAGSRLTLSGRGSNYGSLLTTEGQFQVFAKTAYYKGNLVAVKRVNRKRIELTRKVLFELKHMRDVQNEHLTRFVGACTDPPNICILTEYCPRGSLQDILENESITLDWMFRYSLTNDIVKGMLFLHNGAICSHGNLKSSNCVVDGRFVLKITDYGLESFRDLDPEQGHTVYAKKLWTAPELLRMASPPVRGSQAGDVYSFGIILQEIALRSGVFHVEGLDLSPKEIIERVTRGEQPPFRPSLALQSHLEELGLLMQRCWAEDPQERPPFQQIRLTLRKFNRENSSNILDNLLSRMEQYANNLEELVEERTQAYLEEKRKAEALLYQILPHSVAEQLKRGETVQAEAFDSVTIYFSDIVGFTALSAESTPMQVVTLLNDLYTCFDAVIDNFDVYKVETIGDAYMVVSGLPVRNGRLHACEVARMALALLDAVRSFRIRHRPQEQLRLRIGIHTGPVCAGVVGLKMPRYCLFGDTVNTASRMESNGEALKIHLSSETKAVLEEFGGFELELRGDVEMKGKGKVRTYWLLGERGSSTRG
# Columns and labels:
# human GC-B = molecular target: T1, human GC-B; assay: Intracellular cGMP in GC-B transfected HEK293 cells; type: cell-based; conditions: 10 nM peptide, 15 min
# NPR-C = molecular target: T2, NPR-C; assay: ANP-stimulated cGMP in NPR-C overexpressing HEK293 cells; type: cell-based; conditions: NPR-C-expressing cells, 0.1 nM ANP plus 10 nM peptide
# Source text: The expression plasmid for rat GC-A containing the entire coding sequence cloned between the NheI-KpnI sites of CMV-driven pBK plasmid (Stratagene, La Jolla, Calif.) was kindly provided by Dr. A. De Léan (Département de Pharmacologie, Université de Montréal). The human NPR-C and GC-B coding sequences were amplified by RT-PCR from human embryonic kidney polyA RNA (Clontech, Palo Alto, Calif.) with the following primer pairs: NPR-C-5′-[…]-3′(forward) (SEQ ID NO: 74) and 5′-[…]-3′ (SEQ ID NO: 75) (reverse); GC-B-5′-[…]-3′ (SEQ ID NO: 76) (forward) and 5′-[…]-3′ (SEQ ID NO: 77) (reverse). The resulting PCR products were then cloned downstream of the CMV-promoter into the pCDNA1.1 plasmid (Invitrogen, Burlington, ON, Canada). All constructs were validated by DNA sequencing.
# endogenous GC-A = molecular target: T3, endogenous GC-A; assay: ANP-stimulated cGMP in GFP-transfected HEK293 cells (endogenous GC-A); conditions: co-incubation with 10 nM peptide (data not shown)
molecule,measurement,setting,value
"rhOstn[27-133]: N-terminal 6 histidine-tagged recombinant human Ostn amino acids 27-133 produced in E.coli, SEQ ID NO: 57 (protein, N-terminal His6 tag; recombinant mature osteocrin) SVDVTTTEAFDSGVIDVQSTPTVREEKSATDLTAKLLLLDELVSLENDVIETKKKRSFSGFGSPLDRLSAGSVDHKGKQRKVVDHPKRRFGIPMDRIGRNRLSNSRG",intracellular cGMP response via GC-B,human GC-B,failed to activate
same,increase in cGMP levels (restored ANP signalling),NPR-C,8 fold
same,effect on ANP signalling,endogenous GC-A,no effect
